Substitutions are numbered along the chain they refer to.
T1: B7-H2Ig fusion protein (extracellular domain of human B7-H2 linked to an Ig portion); which one not said for … (human, UniProt O75144 19-256)
T1 sequence (looked up): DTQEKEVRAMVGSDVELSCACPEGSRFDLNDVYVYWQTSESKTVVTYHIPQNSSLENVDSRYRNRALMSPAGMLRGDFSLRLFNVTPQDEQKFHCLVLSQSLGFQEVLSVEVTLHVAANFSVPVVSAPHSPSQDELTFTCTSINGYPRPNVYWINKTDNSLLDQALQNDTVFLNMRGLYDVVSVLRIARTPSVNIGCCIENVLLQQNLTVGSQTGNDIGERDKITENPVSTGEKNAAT

T2: human B7-H2 expressed on transfected CHO cells (human, UniProt O75144 19-302)
T2 construct: whole, on cells; also called B7-H2+ CHO cells
T2 sequence (looked up): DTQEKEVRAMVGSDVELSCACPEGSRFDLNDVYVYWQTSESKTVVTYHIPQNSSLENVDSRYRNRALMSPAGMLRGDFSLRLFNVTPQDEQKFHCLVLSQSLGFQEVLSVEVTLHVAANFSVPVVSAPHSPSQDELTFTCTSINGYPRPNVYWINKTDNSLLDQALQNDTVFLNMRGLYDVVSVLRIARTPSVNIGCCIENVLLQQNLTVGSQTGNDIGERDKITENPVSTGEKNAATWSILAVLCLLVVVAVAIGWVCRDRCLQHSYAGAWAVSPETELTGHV

T3: B7-H2mIg (extracellular domain of human B7-H2 linked to mouse IgG2a) (human; mouse, UniProt O75144 19-256)
T3 construct: extracellular domain; also called B7-H2Ig (mouse Ig); B7-H2Ig; not shown: mouse IgG2a
T3 sequence (looked up): T1 sequence (looked up)

B1: ICOSIg mutant Ser76Glu (Fc fusion)
chain: EINGSANYEMFIFHNGGVQILCKYPDIVQQFKMQLLKGGQILCDLTKTKGSGNTVEIKSLKFCHSQLSNNSVSFFLYNLDHSHANYYFCNLSIFDPPPFKVTLTGGYLHIYESQLCCQLK
notes: Built on ICOSIg cDNA; also called Ser76Glu mutant; Ser76Glu protein; not shown: CH2-CH3 portion of human IgG1
B2: ICOSIg mutant Pro117Ser (Fc fusion)
chain: B1 chain with E56S, P97S
notes: Built on ICOSIg cDNA; also called Pro117Ser mutant; not shown: CH2-CH3 portion of human IgG1
B3: ICOSIg mutant Phe114Ser (Fc fusion)
chain: B1 chain with E56S, F94S
notes: Built on ICOSIg cDNA; not shown: CH2-CH3 portion of human IgG1
B4: ICOSIg mutant Lys67Ser (Fc fusion)
chain: B1 chain with K47S, E56S
notes: as for B3
B5: ICOSIg mutant Phe51Ser (Fc fusion)
chain: B1 chain with F31S, E56S
notes: as for B3
B6: ICOSIg mutant Asp115Ser (Fc fusion)
chain: B1 chain with E56S, D95S
notes: as for B3
B7: ICOSIg mutant Phe119Ser (Fc fusion)
chain: B1 chain with E56S, F99S
notes: as for B3
B8: ICOSIg homologue replacement mutant RP64-78 (Fc fusion)
chain: EINGSANYEMFIFHNGGVQILCKYPDIVQQFKMQLLKGGQILCVVYGNYSQQLQVYSKSLKFCHSQLSNNSVSFFLYNLDHSHANYYFCNLSIFDPPPFKVTLTGGYLHIYESQLCCQLK
notes: not shown: CH2-CH3 portion of human IgG1
B9: wild-type ICOSIg (extracellular domain of human ICOS fused to the CH2-CH3 portion of human IgG1) (Fc fusion)
chain: B1 chain with E56S
notes: Made in COS cells; used as concentrated supernatant or purified; also called human ICOSIg; not shown: CH2-CH3 portion of human IgG1
B10: ICOSIg homologue replacement mutant RP49-52 (Fc fusion)
chain: B1 chain with Q29R, Q30E, K32R, E56S
notes: as for B8
B11: ICOSIg mutant Gln49Ser (Fc fusion)
chain: B1 chain with Q29S, E56S
notes: as for B3
B12: ICOSIg mutant Gln50Ser (Fc fusion)
chain: B1 chain with Q30S, E56S
notes: as for B3
B13: ICOSIg mutant Lys52Ser (Fc fusion)
chain: B1 chain with K32S, E56S
notes: as for B3
B14: ICOSIg mutant Asp64Ser (Fc fusion)
chain: B1 chain with D44S, E56S
notes: as for B3
B15: ICOSIg mutant Lys69Ser (Fc fusion)
chain: B1 chain with K49S, E56S
notes: as for B3

molecular target: T1, B7-H2Ig fusion protein (extracellular …); experiment: cell-based or functional assay

T cell proliferation ([3H]-thymidine) costimulated by immobilized B7-H2Ig with anti-CD3 mAb | Binder
~10 fold (against wild-type ICOSIg) | B1

molecular target: T2, human B7-H2 expressed on transfected …; experiment: FACS on B7-H2+ CHO cells

binding result | Binder
no binding | B2
no binding | B3
no binding | B4
no binding | B5
no binding | B6
no binding | B7

molecular target: T2, human B7-H2 expressed on transfected …; experiment: FACS on CHO cells transfected to express B7-H2
Experimental: Flow cytometry: B7-H2⁺ CHO cells (1×10⁵ cells per sample) were incubated on ice for 45 minutes, in a 1:1 mixture of fluorescence activated cell sorter (FACS) buffer (3% FBS and 0.02% NaN₃ in PBS):COS cell culture media containing ICOSIg fusion proteins. The B7-H2Ig fusion protein was used as a negative control. The cells were washed and further incubated with fluorescein isothiocyanate (FITC)-conjugated goat anti-human IgG (BioSource, Camarillo, Calif.) on ice for 30 minutes. Fluorescence was analyzed on a FACScaliber flow cytometer (Becton Dickinson, Mountain View, Calif.) with Cell Quest software (Becton Dickinson).
Mutagenesis analysis of the interaction between ICOS and B7-H2: The conserved regions within ICOS were subjected to mutagenesis in order to analyze their importance for binding to B7-H2. […] These constructs were expressed as ICOSIg hybrid proteins in COS cells, and the concentrations of the mutant proteins in serum-free culture media was determined by sandwich ELISA using anti-human Ig mAbs (BD Pharmingen). […] The ability of each ICOSIg mutant to bind to B7-H2 was determined by sandwich ELISA using B7-H2Ig (mouse Ig) and anti-human Ig mAb (FIG. 3A), and also by FACS analysis of ICOSIg binding to CHO cells that were transfected to express B7-H2. […]

binding result | Binder
no binding | B8

molecular target: T3, B7-H2mIg (extracellular domain of human …); experiment: capture ELISA, B7-H2mIg coated, anti-human IgG-HRP detection
Experimental: The ability of ICOSIg mutants to bind B7-H2 was measured using capture ELISA. Recombinant B7-H2mIg fusion proteins were coated on microtiter plates at 5 μg/ml and incubated overnight at 4° C. As described above, wells were blocked and then washed with PBS-Tween, and COS cell culture media was added and incubated for 2 hours at room temperature. HRP-conjugated goat anti-human IgG was added after washing, followed by TMB substrate and H₂SO₄, and absorbance was measured at 405 nm.
^a The regions, nucleotides, or amino acids in front of the slash were replaced with the corresponding regions, nucleotides, or amino acids after the slash. ^b Nucleotides are numbered from the A of the initiation codon. ^c Amino acids are numbered from the initiation methionine. ^d Specific binding activities were determined for each of the indicated fusion proteins. The concentration of a fusion protein required to give an arbitrary A405, which is the same as that of wild type ICOSIg, was determined from the linear region of binding curves and expressed as a percentage of specific binding activity of ICOSIg. Values represent the average of three determinations from each binding curve. The results are representative of three experiments.

B7-H2 Binding (specific binding activity as percentage of ICOSIg) | Binder
< 0.1 % of wild type ICOSIg | B8
100 % of wild type ICOSIg | B9
9 % of wild type ICOSIg | B10
33 % of wild type ICOSIg | B11
< 0.1 % of wild type ICOSIg | B2
< 0.1 % of wild type ICOSIg | B3
< 0.1 % of wild type ICOSIg | B4
6 % of wild type ICOSIg | B12
200 % of wild type ICOSIg | B13
< 0.1 % of wild type ICOSIg | B5
300 % of wild type ICOSIg | B1
6 % of wild type ICOSIg | B14
< 0.1 % of wild type ICOSIg | B6
3 % of wild type ICOSIg | B15
< 0.1 % of wild type ICOSIg | B7
